For the assay, the target named is MTs coated with His-mCherry-SEPT9 (10 nM) (bovine (methods) or porcine (Key Resources Table) | human) (UniProt P02550). The assay is described as follows: single-molecule TIRF motility assay.

“KIF5C(1–560)-L12_(KIF1A)-mCit (from UniProt P56536 1-560) (domain or fragment)” yielded a fold landing rate against SEPT9-free MTs of 2 fold.
